Data from US11306156.

Assays:
[1] = target: D3H44 light chain S131K (Kabat), N-terminal HA or FLAG tag; assay: LCCA co-expression, competing light chain m37, L1:L2 DNA 1:9 normalized to 1:1, SPR tag read-out
[2] = target: D3H44 light chain S131K (Kabat), N-terminal HA or FLAG tag; assay: LCCA co-expression, competing light chain m37, L1:L2 DNA 1:3 normalized to 1:1, SPR tag read-out
[3] = target: D3H44 light chain Q124E_T180E (Kabat), N-terminal HA or FLAG tag; assay: LCCA co-expression, competing light chain m36, L1:L2 DNA 1:9 normalized to 1:1, SPR tag read-out
[4] = target: D3H44 light chain Q124E_T180E (Kabat), N-terminal HA or FLAG tag; assay: LCCA co-expression, competing light chain m36, L1:L2 DNA 1:3 normalized to 1:1, SPR tag read-out
[5] = target: D3H44 light chain S121K_V133G_N137K_S174R_S176R (Kabat), N-terminal HA or FLAG tag; assay: LCCA co-expression, competing light chain m30, L1:L2 DNA 1:3 normalized to 1:1, SPR tag read-out
[6] = target: D3H44 light chain V133G_N137K_S174R_S176R (Kabat), N-terminal HA or FLAG tag; assay: as above
[7] = target: D3H44 light chain Q124E_V133G_S176D_T178E_T180E (Kabat), N-terminal HA or FLAG tag; assay: LCCA co-expression, competing light chain m24, L1:L2 DNA 1:3 normalized to 1:1, SPR tag read-out
[8] = target: D3H44 light chain Q124K_V133G_S176R_T178K (Kabat), N-terminal HA or FLAG tag; assay: LCCA co-expression, competing light chain m25, L1:L2 DNA 1:3 normalized to 1:1, SPR tag read-out
[9] = target: D3H44 light chain Q124K_V133G_S176R_T178K (Kabat), N-terminal HA or FLAG tag; assay: LCCA co-expression, competing light chain m23, L1:L2 DNA 1:3 normalized to 1:1, SPR tag read-out
[10] = target: D3H44 light chain V133G_S176D_T178D_T180E (Kabat), N-terminal HA or FLAG tag; assay: LCCA co-expression, competing light chain m24, L1:L2 DNA 1:3 normalized to 1:1, SPR tag read-out
[11] = target: D3H44 light chain Q124K_V133G_S176R_T178K (Kabat), N-terminal HA or FLAG tag; assay: LCCA co-expression, competing light chain m26, L1:L2 DNA 1:3 normalized to 1:1, SPR tag read-out
[12] = target: D3H44 light chain T178R (Kabat) with N-terminal HA or FLAG tag; assay: LCCA, SPR read-out of light-chain tags; light-chain DNA 1:3 normalized to 1:1; competing light chain m19
[13] = target: D3H44 light chain Q124E_Q160E_T180E (Kabat) with N-terminal HA or FLAG tag; assay: LCCA, SPR read-out of light-chain tags; light-chain DNA 1:3 normalized to 1:1; competing light chain m18
[14] = target: D3H44 light chain Q124E_T180E (Kabat) with N-terminal HA or FLAG tag; assay: as above
[15] = target: D3H44 light chain Q124E_Q160E_T180E (Kabat) with N-terminal HA or FLAG tag; assay: LCCA, SPR read-out of light-chain tags; light-chain DNA 1:3 normalized to 1:1; competing light chain m20
[16] = target: D3H44 light chain Q124E_S131T_T178F_T180E (Kabat) with N-terminal HA or FLAG tag; assay: as above
[17] = target: D3H44 light chain Q124K_T178R (Kabat) with N-terminal HA or FLAG tag; assay: LCCA, SPR read-out of light-chain tags; light-chain DNA 1:3 normalized to 1:1; competing light chain m17
[18] = target: D3H44 light chain Q124R_Q160K_T178R (Kabat) with N-terminal HA or FLAG tag; assay: as above
[19] = target: D3H44 light chain T178R (Kabat) with N-terminal HA or FLAG tag; assay: as above
[20] = target: D3H44 light chain Q124R_Q160K_T178R (Kabat) with N-terminal HA or FLAG tag; assay: LCCA, SPR read-out of light-chain tags; light-chain DNA 1:3 normalized to 1:1; competing light chain m22
[21] = target: D3H44 light chain Q124E_Q160E_T180E (Kabat) with N-terminal HA or FLAG tag; assay: LCCA, SPR read-out of light-chain tags; light-chain DNA 1:3 normalized to 1:1; competing light chain m16
[22] = target: tissue factor (TF) antigen (UniProt P13726); assay: SPR (ProteOn XPR36), Fab captured on anti-penta-His surface, TF as analyte; reference wild-type D3H44 Fab; batch C
[23] = target: tissue factor (TF) antigen (UniProt P13726); assay: SPR (ProteOn XPR36), Fab captured on anti-penta-His surface, TF as analyte, 1:1 fit; batch C (stored about 2 months at 4 C)
[24] = target: tissue factor (TF) antigen (UniProt P13726); assay: SPR (ProteOn), Fab captured on anti-penta-His, TF analyte, 1:1 fit; * estimated from a Fab differing only in the L chain tag
[25] = target: tissue factor (TF) antigen (UniProt P13726); assay: SPR KD against wild-type D3H44 Fab; * estimated value (estimated wild-type KD […])
[26] = target: tissue factor (TF) antigen (UniProt P13726); assay: SPR KD against wild-type D3H44 Fab (reference KD 0.157 nM)
[27] = target: tissue factor (TF) antigen (UniProt P13726); assay: SPR (ProteOn), Fab captured on anti-penta-His, TF analyte, 1:1 fit
[28] = target: tissue factor (TF) antigen (UniProt P13726); assay: SPR (ProteOn XPR36), Fab captured by His tag on anti-penta-His surface, TF injected as analyte, 1:1 fit; batch C (+)
[29] = target: tissue factor (TF) antigen (UniProt P13726); assay: SPR (ProteOn XPR36), Fab captured by His tag on anti-penta-His surface, TF injected as analyte; against wild-type D3H44 Fab; batch C (+)
[30] = target: tissue factor (TF) antigen (UniProt P13726); assay: SPR, Fab captured on anti-penta-His, TF as analyte, 1:1 fit; batch C (+)
[31] = target: tissue factor (TF) antigen (UniProt P13726); assay: vs wild-type D3H44 Fab (KD 0.157 nM); SPR, Fab captured on anti-penta-His, TF as analyte; batch C (+)

D3H44 Fab heavy chain K145T_Q179E (Kabat), C-terminal ABD2-His6 tag
H1L1:H1L2 normalized median ratio [1]: 75 of 100 | H1L1:H1L2 normalized median scalar value ln(r1/f1) [1]: 1.1 | H1L1:H1L2 normalized median ratio [2]: 42 of 100 | H1L1:H1L2 normalized median scalar value ln(r1/f1) [2]: -0.34 | H1L1:H1L2 normalized median ratio [3]: 25 of 100 | H1L1:H1L2 normalized median ratio [4]: 58 of 100

D3H44 Fab heavy chain L124E_A125S_H172T_K228D (Kabat), C-terminal ABD2-His6 tag
H1L1:H1L2 normalized median ratio [5]: 27 of 100 | H1L1:H1L2 normalized median scalar value ln(r1/f1) [5]: -0.97

D3H44 Fab heavy chain L124E_H172T (Kabat), C-terminal ABD2-His6 tag
H1L1:H1L2 normalized median ratio [6]: 53 of 100 | H1L1:H1L2 normalized median scalar value ln(r1/f1) [6]: 0.12

D3H44 Fab heavy chain L124E_L143D_K145M (Kabat), C-terminal ABD2-His6 tag
H1L1:H1L2 normalized median ratio [7]: 17 of 100 | H1L1:H1L2 normalized median ratio [8]: 83 of 100 | H1L1:H1L2 normalized median scalar value ln(r1/f1) [8]: 1.59

D3H44 Fab heavy chain L124E_L143D_K145T (Kabat), C-terminal ABD2-His6 tag
H1L1:H1L2 normalized median ratio [7]: 21 of 100 | H1L1:H1L2 normalized median ratio [9]: 81 of 100 | H1L1:H1L2 normalized median scalar value ln(r1/f1) [9]: 1.44 | H1L1:H1L2 normalized median ratio [8]: 79 of 100 | H1L1:H1L2 normalized median scalar value ln(r1/f1) [8]: 1.31

D3H44 Fab heavy chain L124E_L143E_K145M (Kabat), C-terminal ABD2-His6 tag
H1L1:H1L2 normalized median ratio [10]: 37 of 100 | H1L1:H1L2 normalized median ratio [11]: 63 of 100 | H1L1:H1L2 normalized median scalar value ln(r1/f1) [11]: 0.55 | H1L1:H1L2 normalized median ratio [9]: 88 of 100 | H1L1:H1L2 normalized median scalar value ln(r1/f1) [9]: 1.95

D3H44 Fab heavy chain L124E_L143E_K145T (Kabat), C-terminal ABD2-His6 tag
H1L1:H1L2 normalized median ratio [10]: 38 of 100 | H1L1:H1L2 normalized median ratio [11]: 62 of 100 | H1L1:H1L2 normalized median scalar value ln(r1/f1) [11]: 0.43 | H1L1:H1L2 normalized median ratio [9]: 89 of 100 | H1L1:H1L2 normalized median scalar value ln(r1/f1) [9]: 2.08

D3H44 Fab heavy chain L124R_A125R_H172R (Kabat), C-terminal ABD2-His6 tag
H2L2:H2L1 normalized median ratio [5]: 5 of 100

D3H44 Fab heavy chain L124R_D146N_Q179K (Kabat), C-terminal ABD2-His6 tag
H2L2:H2L1 normalized median ratio [7]: 84 of 100 | H2L2:H2L1 normalized median ratio [8]: 16 of 100

D3H44 Fab heavy chain L124R_H172R (Kabat), C-terminal ABD2-His6 tag
H2L2:H2L1 normalized median ratio [6]: 8 of 100

D3H44 Fab heavy chain L124R_S186K (Kabat), C-terminal ABD2-His6 tag
H2L2:H2L1 normalized median ratio [10]: 93 of 100 | H2L2:H2L1 normalized median ratio [11]: 7 of 100 | H2L2:H2L1 normalized median ratio [9]: 24 of 100

D3H44 Fab heavy chain S186K (Kabat) with C-terminal ABD2-His6 tag
H2L2:H2L1 normalized median ratio [12]: 4% | H2L2:H2L1 normalized median ratio [13]: 91% | H2L2:H2L1 normalized median ratio [14]: 96% | H2L2:H2L1 normalized median ratio [15]: 81% | H2L2:H2L1 normalized median ratio [16]: 96% | H2L2:H2L1 normalized median ratio [17]: 17% | H2L2:H2L1 normalized median ratio [18]: 19% | H2L2:H2L1 normalized median ratio [19]: 9% | H2L2:H2L1 normalized median ratio [20]: 4% | H2L2:H2L1 normalized median ratio [21]: 83%

D3H44 Fab heavy chain S186K (Kabat), C-terminal ABD2-His6 tag
H2L2:H2L1 normalized median ratio [1]: 7 of 100 | H2L2:H2L1 normalized median ratio [2]: 2 of 100 | H2L2:H2L1 normalized median ratio [3]: 93 of 100 | H2L2:H2L1 normalized median ratio [4]: 98 of 100

D3H44 Fab heterodimer H1 S186K / L1 S131E
Change in median values of KD of h1l1 Fab heterodimer compared to wild type (-(log(KD design)-log(KD wt))) [22]: 0.05 | Kd [23]: 0.14 nM

D3H44 Fab heterodimer H1 S188L_V190Y / L1 V133S
Change in median values of KD of h1l1 Fab heterodimer compared to wild type (-(log(KD design)-log(KD wt))) [22]: 0.2 | Kd [23]: 0.1 nM

D3H44 Fab heterodimer, H: L143E_K145T_Q179D, L: Q124R_Q160K_T178R (H1L1 Fab of LCCA set 9623)
Kd [24]: 0.06 nM | Change in KD with respect to wild type (-(log(KD design) - log(KD wt))) [25]: 0.39

D3H44 Fab heterodimer, H: L143E_K145T_Q179D, L: Q124R_T178K (H1L1 Fab of LCCA set 9629)
Kd [24]: 0.12 nM | Change in KD with respect to wild type (-(log(KD design) - log(KD wt))) [25]: 0.12

D3H44 Fab heterodimer, H: L143E_K145T_Q179E, L: Q124R_T178R (H1L1 Fab of LCCA sets 9663, 9666, 9667, 9671, 9675, 9679 and 9682)
Kd [24]: 0.27 nM | Change in KD with respect to wild type (-(log(KD design) - log(KD wt))) [26]: -0.23 | Kd [27]: 0.27 nM | Change in KD with respect to wild type (-(log(KD design) - log(KD wt))) [25]: -0.23

D3H44 H1L1 Fab heterodimer of LCCA Set # 9648 (H1 L143E_K145T_Q179E, L1 Q124K_T178R)
Kd [28]: 0.14 nM | change in median KD compared to wild type, -(log(KD design)-log(KD wt)) [29]: 0.05 log

D3H44 H1L1 Fab heterodimer of LCCA Set # 9982 (H1 S186K, L1 S131E)
Kd [28]: 0.14 nM | change in median KD compared to wild type, -(log(KD design)-log(KD wt)) [29]: 0.05 log

D3H44 H1L1 Fab heterodimer of LCCA Sets # 9888 and 9887 (H1 S186R, L1 Q124E_T178E)
Kd [28]: 0.14 nM | change in median KD compared to wild type, -(log(KD design)-log(KD wt)) [29]: 0.06 log

H1L1 Fab heterodimer of LCCA set 9654 (D3H44 Fab, H1 L143E_K145T_Q179E, L1 Q124R_Q160K_T178R)
Kd [30]: 0.15 nM | change in median KD compared to wild type, -(log(KD design)-log(KD wt)) [31]: 0.02

H1L1 Fab heterodimer of LCCA sets 9801 and 9802 (D3H44 Fab, H1 Q179R, L1 Q124E_Q160E_T178E)
Kd [30]: 0.11 nM | change in median KD compared to wild type, -(log(KD design)-log(KD wt)) [31]: 0.16
